The assay concerns the target His(6)-p300 (UniProt Q09472 1-2414). The assay can be described thus: pull-down.

His(6)-p300, sequence (Q09472 whole entry): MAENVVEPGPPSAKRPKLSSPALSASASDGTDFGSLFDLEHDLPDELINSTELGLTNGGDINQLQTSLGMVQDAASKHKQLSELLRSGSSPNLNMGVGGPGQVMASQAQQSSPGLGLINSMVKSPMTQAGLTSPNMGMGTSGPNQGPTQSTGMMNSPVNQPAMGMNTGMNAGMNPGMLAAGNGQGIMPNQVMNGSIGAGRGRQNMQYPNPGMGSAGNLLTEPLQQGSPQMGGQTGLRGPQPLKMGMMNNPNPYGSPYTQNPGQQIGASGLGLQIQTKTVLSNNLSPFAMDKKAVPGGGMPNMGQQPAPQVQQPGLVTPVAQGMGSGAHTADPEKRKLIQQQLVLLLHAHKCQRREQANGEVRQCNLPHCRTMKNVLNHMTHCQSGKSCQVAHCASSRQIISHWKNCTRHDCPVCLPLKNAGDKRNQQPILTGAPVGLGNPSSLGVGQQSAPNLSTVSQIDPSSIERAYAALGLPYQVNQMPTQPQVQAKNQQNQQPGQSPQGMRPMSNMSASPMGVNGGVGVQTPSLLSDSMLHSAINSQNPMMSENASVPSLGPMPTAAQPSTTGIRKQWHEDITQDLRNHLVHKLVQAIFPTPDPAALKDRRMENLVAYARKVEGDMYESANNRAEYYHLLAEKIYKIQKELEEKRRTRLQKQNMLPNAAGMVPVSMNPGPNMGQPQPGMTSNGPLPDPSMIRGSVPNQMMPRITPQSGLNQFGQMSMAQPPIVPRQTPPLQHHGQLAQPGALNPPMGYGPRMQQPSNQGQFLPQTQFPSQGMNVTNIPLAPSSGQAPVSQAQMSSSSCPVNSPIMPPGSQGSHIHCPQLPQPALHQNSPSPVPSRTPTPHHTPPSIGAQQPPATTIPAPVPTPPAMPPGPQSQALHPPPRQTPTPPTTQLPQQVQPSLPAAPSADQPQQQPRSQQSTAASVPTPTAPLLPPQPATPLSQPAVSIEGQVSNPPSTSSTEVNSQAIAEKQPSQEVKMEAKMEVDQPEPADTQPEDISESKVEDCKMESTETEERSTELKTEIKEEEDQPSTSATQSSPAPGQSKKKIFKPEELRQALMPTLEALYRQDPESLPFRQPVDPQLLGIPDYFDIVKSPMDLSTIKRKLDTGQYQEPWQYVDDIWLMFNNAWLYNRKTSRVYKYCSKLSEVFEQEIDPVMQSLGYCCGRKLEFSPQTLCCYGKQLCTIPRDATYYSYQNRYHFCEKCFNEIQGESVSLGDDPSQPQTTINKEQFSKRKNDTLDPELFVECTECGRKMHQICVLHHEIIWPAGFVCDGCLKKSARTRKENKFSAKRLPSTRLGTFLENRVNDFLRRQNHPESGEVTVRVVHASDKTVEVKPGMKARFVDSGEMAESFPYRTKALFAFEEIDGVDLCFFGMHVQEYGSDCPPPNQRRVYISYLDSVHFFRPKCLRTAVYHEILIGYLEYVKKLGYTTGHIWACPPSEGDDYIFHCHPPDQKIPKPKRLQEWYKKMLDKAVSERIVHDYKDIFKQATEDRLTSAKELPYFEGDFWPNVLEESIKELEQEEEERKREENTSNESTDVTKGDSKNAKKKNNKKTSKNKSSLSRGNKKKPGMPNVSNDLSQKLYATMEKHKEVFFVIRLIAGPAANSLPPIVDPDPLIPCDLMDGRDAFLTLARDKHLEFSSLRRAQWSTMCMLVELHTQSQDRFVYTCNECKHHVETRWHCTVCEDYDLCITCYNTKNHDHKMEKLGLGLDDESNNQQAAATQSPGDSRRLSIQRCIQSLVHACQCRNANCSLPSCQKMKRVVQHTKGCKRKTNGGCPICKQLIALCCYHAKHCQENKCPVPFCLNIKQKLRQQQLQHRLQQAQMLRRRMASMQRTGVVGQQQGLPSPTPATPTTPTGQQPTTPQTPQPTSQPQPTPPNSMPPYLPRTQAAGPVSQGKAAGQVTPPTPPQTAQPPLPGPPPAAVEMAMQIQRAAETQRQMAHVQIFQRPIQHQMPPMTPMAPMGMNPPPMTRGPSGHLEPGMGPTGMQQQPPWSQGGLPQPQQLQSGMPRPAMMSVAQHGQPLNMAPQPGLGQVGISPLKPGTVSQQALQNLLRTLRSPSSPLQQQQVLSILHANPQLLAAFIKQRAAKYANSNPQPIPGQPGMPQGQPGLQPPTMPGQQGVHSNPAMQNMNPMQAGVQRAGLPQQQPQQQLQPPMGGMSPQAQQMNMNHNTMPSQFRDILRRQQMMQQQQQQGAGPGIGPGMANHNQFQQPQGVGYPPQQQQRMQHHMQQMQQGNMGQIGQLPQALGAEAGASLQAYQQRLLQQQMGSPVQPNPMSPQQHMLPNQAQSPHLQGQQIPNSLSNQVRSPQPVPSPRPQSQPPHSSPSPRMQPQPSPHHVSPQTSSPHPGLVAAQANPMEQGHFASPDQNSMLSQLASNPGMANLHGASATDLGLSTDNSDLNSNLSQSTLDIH

B1: GST-fused BRMS1 WT (natural protein, UniProt Q9HCU9 1-246, looked up)
chain: MPVQPPSKDTEEMEAEGDSAAEMNGEEEESEEERSGSQTESEEESSEMDDEDYERRRSECVSEMLDLEKQFSELKEKLFRERLSQLRLRLEEVGAERAPEYTEPLGGLQRSLKIRIQVAGIYKGFCLDVIRNKYECELQGAKQHLESEKLLLYDTLQGELQERIQRLEEDRQSLDLSSEWWDDKLHARGSSRSWDSLPPSKRKKAPLVSGPYIVYMLQEIDILEDWTAIKKARAAVSPQKRKSDGP
B1: the binding result is reported as “binds”.

Values taken from paper PMC3578176 (Cancer research, 2012).
